Experiments:
Test in all cases: purified protein
Conditions in all cases: co-substrate GTP
[1] = tested on: CO[C@@H]1[C@@H](OP(=O)(O)O)O[C@H](CO)[C@@H](O)[C@@H]1O
Description: (§1) colorimetric pyrophosphate detection assay on GDP-mannose pyrophosphorylase (GDP-ManPP)

[2] = tested on: CO[C@H]1[C@H](O)[C@H](O)[C@@H](OP(=O)(O)O)O[C@@H]1CO
Description: as §1

[3] = tested on: COC[C@H]1O[C@H](OP(=O)(O)O)[C@@H](O)[C@@H](O)[C@@H]1O
Description: as §1

[4] = tested on: CO[C@@H]1[C@H](O)[C@@H](OP(=O)(O)O)O[C@H](CO)[C@H]1O
Description: as §1

[5] = tested on: C[C@H]1O[C@H](OP(=O)(O)O)[C@@H](O)[C@@H](O)[C@@H]1O
Description: as §1

[6] = tested on: O=P(O)(O)O[C@H]1O[C@H](CO)[C@@H](O)[C@H](O)[C@@H]1O
Description: as §1

Work on “GDP-mannose pyrophosphorylase (GDP-ManPP) (Salmonella enterica subsp. enterica serovar Typhimurium str. LT2)” yielded a Km [1] of 4000 ± 1100 µM, a kcat [1] of 1.17 ± 0.183 s⁻¹ and a kcat/Km [1] of 333 ± 167 M⁻¹ s⁻¹. It also gave a Km [2] of 3400 ± 870 µM, a kcat [2] of 0.517 ± 0.0783 s⁻¹ and a kcat/Km [2] of 150 ± 83.3 M⁻¹ s⁻¹. For the same substance, the Km [3] was 120 ± 18 µM, the kcat [3] was 0.45 ± 0.0167 s⁻¹ and the kcat/Km [3] was 3830 ± 1000 M⁻¹ s⁻¹. The Km [4] was 200 ± 72 µM, the kcat [4] was 0.0867 ± 0.0117 s⁻¹ and the kcat/Km [4] was 433 ± 16.7 M⁻¹ s⁻¹. For the same substance, the Km [5] was 70 ± 13 µM, the kcat [5] was 5 ± 0.217 s⁻¹ and the kcat/Km [5] was 66700 ± 16700 M⁻¹ s⁻¹. It also gave a Km [6] of 40 ± 6 µM, a kcat [6] of 6 ± 0.267 s⁻¹ and a kcat/Km [6] of 150000 ± 50000 M⁻¹ s⁻¹.

Source: publication PMC3458741, “Studies on the substrate specificity of a GDP-mannose pyrophosphorylase from Salmonella enterica” (Beilstein Journal of Organic Chemistry, 2012)
